Data taken from the Human Domainome abundance scans (Beltran et al. 2025).
± gives the uncertainty stated by the source.

B1: SWI/SNF complex subunit SMARCC1, residues 620 to 663; numbered along this chain, Q92922 (parent)
chain: GREWTEQETLLLLEALEMYKDDWNKVSEHVGSRTQDECILHFLR

Variants of: B1
Assay: abundance fitness (aPCA) (normalised: wild type 0, dead -1); higher = more abundant; growth selection in yeast, the domain comes from the species named
Settings: Homo sapiens

Point of comparison: GREWTETETLLLLEALEMYKDDWNKVSEHVGSRTQDECILHFLR [Q7T], abundance fitness 0.075 ± 0.19. Against it:
- GREHTEQETLLLLEALEMYKDDWNKVSEHVGSRTQDECILHFLR [W4H] — lower, -0.4 ± 0.21
- GREMTEQETLLLLEALEMYKDDWNKVSEHVGSRTQDECILHFLR [W4M] — within error, -0.141 ± 0.11
- GRERTEQETLLLLEALEMYKDDWNKVSEHVGSRTQDECILHFLR [W4R] — within error, -0.084 ± 0.094
- GREATEQETLLLLEALEMYKDDWNKVSEHVGSRTQDECILHFLR [W4A] — within error, -0.254 ± 0.17
- GRETTEQETLLLLEALEMYKDDWNKVSEHVGSRTQDECILHFLR [W4T] — within error, -0.134 ± 0.23
- GRENTEQETLLLLEALEMYKDDWNKVSEHVGSRTQDECILHFLR [W4N] — within error, -0.265 ± 0.16
- GRECTEQETLLLLEALEMYKDDWNKVSEHVGSRTQDECILHFLR [W4C] — lower, -0.526 ± 0.16
- GREITEQETLLLLEALEMYKDDWNKVSEHVGSRTQDECILHFLR [W4I] — within error, 0.253 ± 0.18
- GRELTEQETLLLLEALEMYKDDWNKVSEHVGSRTQDECILHFLR [W4L] — lower, -0.285 ± 0.08
- GREVTEQETLLLLEALEMYKDDWNKVSEHVGSRTQDECILHFLR [W4V] — within error, -0.147 ± 0.14
- GREYTEQETLLLLEALEMYKDDWNKVSEHVGSRTQDECILHFLR [W4Y] — within error, -0.23 ± 0.18
- GREGTEQETLLLLEALEMYKDDWNKVSEHVGSRTQDECILHFLR [W4G] — within error, -0.153 ± 0.086
- GRESTEQETLLLLEALEMYKDDWNKVSEHVGSRTQDECILHFLR [W4S] — within error, -0.08 ± 0.12
- GREDTEQETLLLLEALEMYKDDWNKVSEHVGSRTQDECILHFLR [W4D] — within error, -0.168 ± 0.084
- GREETEQETLLLLEALEMYKDDWNKVSEHVGSRTQDECILHFLR [W4E] — within error, 0.023 ± 0.11
- DREWTEQETLLLLEALEMYKDDWNKVSEHVGSRTQDECILHFLR [G1D] — within error, 0.277 ± 0.1
- WREWTEQETLLLLEALEMYKDDWNKVSEHVGSRTQDECILHFLR [G1W] — within error, -0.293 ± 0.28
- HREWTEQETLLLLEALEMYKDDWNKVSEHVGSRTQDECILHFLR [G1H] — within error, -0.147 ± 0.15
- FREWTEQETLLLLEALEMYKDDWNKVSEHVGSRTQDECILHFLR [G1F] — within error, -0.122 ± 0.2
- RREWTEQETLLLLEALEMYKDDWNKVSEHVGSRTQDECILHFLR [G1R] — lower, -0.383 ± 0.12
- YREWTEQETLLLLEALEMYKDDWNKVSEHVGSRTQDECILHFLR [G1Y] — within error, 0.191 ± 0.12
- AREWTEQETLLLLEALEMYKDDWNKVSEHVGSRTQDECILHFLR [G1A] — within error, 0.081 ± 0.2
- IREWTEQETLLLLEALEMYKDDWNKVSEHVGSRTQDECILHFLR [G1I] — within error, 0.128 ± 0.1
- GREWTEIETLLLLEALEMYKDDWNKVSEHVGSRTQDECILHFLR [Q7I] — within error, 0.341 ± 0.15
- GREWTELETLLLLEALEMYKDDWNKVSEHVGSRTQDECILHFLR [Q7L] — lower, -0.578 ± 0.46
- GREWTEGETLLLLEALEMYKDDWNKVSEHVGSRTQDECILHFLR [Q7G] — within error, -0.052 ± 0.16
- GREWTEPETLLLLEALEMYKDDWNKVSEHVGSRTQDECILHFLR [Q7P] — within error, -0.381 ± 0.34
- GREWTEVETLLLLEALEMYKDDWNKVSEHVGSRTQDECILHFLR [Q7V] — within error, -0.227 ± 0.28
- GREWTERETLLLLEALEMYKDDWNKVSEHVGSRTQDECILHFLR [Q7R] — within error, 0.206 ± 0.15
- GREWTCQETLLLLEALEMYKDDWNKVSEHVGSRTQDECILHFLR [E6C] — within error, -0.069 ± 0.073
- GREWTWQETLLLLEALEMYKDDWNKVSEHVGSRTQDECILHFLR [E6W] — within error, -0.155 ± 0.083
- GREWTGQETLLLLEALEMYKDDWNKVSEHVGSRTQDECILHFLR [E6G] — lower, -0.194 ± 0.076
- GREWTDQETLLLLEALEMYKDDWNKVSEHVGSRTQDECILHFLR [E6D] — within error, -0.164 ± 0.072
- GREWTKQETLLLLEALEMYKDDWNKVSEHVGSRTQDECILHFLR [E6K] — within error, 0.181 ± 0.081
- GREWTIQETLLLLEALEMYKDDWNKVSEHVGSRTQDECILHFLR [E6I] — within error, -0.12 ± 0.075
- GREWTTQETLLLLEALEMYKDDWNKVSEHVGSRTQDECILHFLR [E6T] — within error, -0.12 ± 0.052
- GREWTMQETLLLLEALEMYKDDWNKVSEHVGSRTQDECILHFLR [E6M] — within error, 0.099 ± 0.073
- GREWTYQETLLLLEALEMYKDDWNKVSEHVGSRTQDECILHFLR [E6Y] — within error, -0.178 ± 0.073
- GREWTAQETLLLLEALEMYKDDWNKVSEHVGSRTQDECILHFLR [E6A] — within error, 0.071 ± 0.056
- GREWTPQETLLLLEALEMYKDDWNKVSEHVGSRTQDECILHFLR [E6P] — lower, -0.264 ± 0.069
- GREWTVQETLLLLEALEMYKDDWNKVSEHVGSRTQDECILHFLR [E6V] — lower, -0.227 ± 0.072
- GREWTSQETLLLLEALEMYKDDWNKVSEHVGSRTQDECILHFLR [E6S] — lower, -0.441 ± 0.075
- GREWTLQETLLLLEALEMYKDDWNKVSEHVGSRTQDECILHFLR [E6L] — lower, -0.234 ± 0.073
- GREWTFQETLLLLEALEMYKDDWNKVSEHVGSRTQDECILHFLR [E6F] — lower, -0.265 ± 0.072
- GREWTRQETLLLLEALEMYKDDWNKVSEHVGSRTQDECILHFLR [E6R] — within error, -0.137 ± 0.062
- GREWTQQETLLLLEALEMYKDDWNKVSEHVGSRTQDECILHFLR [E6Q] — within error, 0.212 ± 0.075
- GREWTNQETLLLLEALEMYKDDWNKVSEHVGSRTQDECILHFLR [E6N] — within error, -0.17 ± 0.11
- GREWTEQWTLLLLEALEMYKDDWNKVSEHVGSRTQDECILHFLR [E8W] — lower, -1.06 ± 0.33
- GREWTEQITLLLLEALEMYKDDWNKVSEHVGSRTQDECILHFLR [E8I] — lower, -0.746 ± 0.23
- GREWTEQVTLLLLEALEMYKDDWNKVSEHVGSRTQDECILHFLR [E8V] — lower, -1 ± 0.22
- GREWTEQLTLLLLEALEMYKDDWNKVSEHVGSRTQDECILHFLR [E8L] — lower, -0.936 ± 0.13
- GREWTEQATLLLLEALEMYKDDWNKVSEHVGSRTQDECILHFLR [E8A] — lower, -0.808 ± 0.14
- GREWTEQTTLLLLEALEMYKDDWNKVSEHVGSRTQDECILHFLR [E8T] — lower, -0.651 ± 0.16
- GREWTEQHTLLLLEALEMYKDDWNKVSEHVGSRTQDECILHFLR [E8H] — lower, -0.54 ± 0.17
- GREWTEQDTLLLLEALEMYKDDWNKVSEHVGSRTQDECILHFLR [E8D] — lower, -0.76 ± 0.23
- GREWTEQPTLLLLEALEMYKDDWNKVSEHVGSRTQDECILHFLR [E8P] — lower, -0.593 ± 0.12
- GREWTEQFTLLLLEALEMYKDDWNKVSEHVGSRTQDECILHFLR [E8F] — lower, -0.702 ± 0.26
